As a reminder, the Km is the substrate concentration at which the rate is half of its maximum.

Substrate in the series: Nc1ncnc2c1ncn2[C@@H]1O[C@H](COP(=O)(O)OP(=O)(O)OP(=O)(O)O)[C@@H](O)[C@H]1O
Briefly: purified protein. The following applies: phosphate donor; activity depends on divalent ions.

B1: SGK196dTM (Homo sapiens) (protein)
chain: APRQSTVDPTHCPYGHFRIGQMKNCSPWLSCEELRTEVRQLKRVGEGAVKRVFLSEWKEHKVALSQLTSLEMKDDFLHGLQMLKSLQGTHVVTLLGYCEDDNTMLTEYHPLGSLSNLEETLNLSKYQNVNTWQHRLELAMDYVSIINYLHHSPVGTRVMCDSNDLPKTLSQYLLTSNFSILANDLDALPLVNHSSGMLVKCGHRELHGDFVAPEQLWPYGEDVPFHDDLMPSYDEKIDIWKIPDISSFLLGHIEGSDMVRFHLFDIHKACKSQTPSERPTAQDVLETYQKVLDTLRDAMMSQAREML
Regarding B1, the Michaelis-Menten constant (Km) came out at 4.1 ± 1.4 µM.

Source of the values: PMC3848040.
